Laboratory results published in publication PMC11754596.

Target: p53 (UniProt P04637)
Assay: anti-Flag IP, anti-HA blot
Conditions: reference: HA-STAT1 wild type; sites Y701

## STAT1 (from UniProt P42224) HA-STAT1-Y701F
  binding against the reference: weaker
